Reference: IntAct's records for PubMed 12782684

B1: Ras-like protein 2 (Saccharomyces cerevisiae), P01120 (parent)
chain: MPLNKSNIREYKLVVVGGGGVGKSALTIQLTQSHFVDEYDPTIEDSYRKQVVIDDEVSILDILDTAGQEEYSAMREQYMRNGEGFLLVYSITSKSSLDELMTYYQQILRVKDTDYVPIVVVGNKSDLENEKQVSYQDGLNMAKQMNAPFLETSAKQAINVEEAFYTLARLVRDEGGKYNKTLTENDNSKQTSQDTKGSGANSVPRNSGGHRKMSNAANGKNVNSSTTVVNARNASIESKTGLAGNQATNGKTQTDRTNIDNSTGQAGQANAQSANTVNNRVNNNSKAGQVSNAKQARKQQAAPGGNTSEASKSGSGGCCIIS
partner: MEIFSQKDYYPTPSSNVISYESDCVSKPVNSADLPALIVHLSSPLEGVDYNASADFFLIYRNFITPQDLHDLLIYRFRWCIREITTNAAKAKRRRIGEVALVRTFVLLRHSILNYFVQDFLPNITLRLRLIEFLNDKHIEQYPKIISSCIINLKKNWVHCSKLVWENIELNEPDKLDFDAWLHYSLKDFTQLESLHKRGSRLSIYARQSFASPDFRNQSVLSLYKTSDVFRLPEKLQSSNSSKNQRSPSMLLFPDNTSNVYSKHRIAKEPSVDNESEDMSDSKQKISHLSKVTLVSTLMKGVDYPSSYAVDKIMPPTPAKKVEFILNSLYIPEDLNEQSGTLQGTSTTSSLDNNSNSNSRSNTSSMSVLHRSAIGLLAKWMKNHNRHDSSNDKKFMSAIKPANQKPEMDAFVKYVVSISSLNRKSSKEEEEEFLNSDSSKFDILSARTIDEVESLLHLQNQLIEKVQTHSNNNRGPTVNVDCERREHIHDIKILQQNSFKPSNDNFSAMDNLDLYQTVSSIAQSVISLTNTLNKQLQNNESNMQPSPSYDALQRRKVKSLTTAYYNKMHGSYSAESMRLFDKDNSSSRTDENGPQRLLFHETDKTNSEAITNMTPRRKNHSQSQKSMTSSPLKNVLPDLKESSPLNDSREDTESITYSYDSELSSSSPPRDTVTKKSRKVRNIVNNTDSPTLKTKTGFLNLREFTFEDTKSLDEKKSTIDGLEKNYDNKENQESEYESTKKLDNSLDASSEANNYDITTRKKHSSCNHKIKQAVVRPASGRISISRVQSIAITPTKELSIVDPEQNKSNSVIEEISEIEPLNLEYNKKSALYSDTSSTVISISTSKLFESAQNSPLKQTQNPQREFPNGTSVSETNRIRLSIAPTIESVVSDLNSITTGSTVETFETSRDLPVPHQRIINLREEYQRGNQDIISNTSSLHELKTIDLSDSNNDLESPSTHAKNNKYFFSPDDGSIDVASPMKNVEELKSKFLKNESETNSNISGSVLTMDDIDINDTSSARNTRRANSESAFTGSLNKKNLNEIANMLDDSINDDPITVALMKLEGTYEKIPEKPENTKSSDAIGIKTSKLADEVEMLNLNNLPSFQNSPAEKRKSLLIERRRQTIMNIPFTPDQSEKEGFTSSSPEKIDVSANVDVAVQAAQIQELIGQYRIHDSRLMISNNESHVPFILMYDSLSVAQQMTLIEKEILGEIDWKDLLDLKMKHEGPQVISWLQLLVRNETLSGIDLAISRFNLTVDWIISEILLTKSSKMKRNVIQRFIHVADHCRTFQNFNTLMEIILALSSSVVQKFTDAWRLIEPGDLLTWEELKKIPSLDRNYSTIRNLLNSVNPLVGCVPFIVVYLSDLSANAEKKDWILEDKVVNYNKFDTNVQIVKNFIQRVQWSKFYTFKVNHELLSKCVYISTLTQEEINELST

Variants of: B1
Conditions: with lte1_yeast LTE1, P07866

Variant | effect of a mutation on the interaction
G22N | disrupting interaction

Variants of: B1
Conditions: with lte1_yeast LTE1, P07866
Remark: another data set of the same source

Variant | effect of a mutation on the interaction
C318S | disrupting interaction

Variants of: B1
Conditions: with lte1_yeast LTE1, P07866
Remark: another data set of the same source

Variant | effect of a mutation on the interaction
G19V | increasing interaction
